According to article doi:10.1101/2020.10.15.341636 (bioRxiv, 2020):

B1: mAb 298 IgG (antibody, V domains shown)
VH: QVQLVQSGAEVKKPGASVKVSCKASGGTFSTYGISWVRQAPGQGLEWMGWISPNSGGTDLAQKFQGRVTMTRDTSTSTVYMELSSLRSEDTAVYYCASDPRDDIAGGYWGQGTLVTVSS
VL: not shown
B2: mAb 324 IgG (antibody, V domains shown)
VH: QVQLVQSGAEVKKPGASVKVSCKASGGTFNNYGISWVRQAPGQGLEWMGWMNPNSGNTGYAQKFQGRVTMTRDTSTSTVYMELSSLRSEDTAVYYCARVGDYGDYIVSPFDLWGRGTLVTVSS
VL: DIQMTQSPSSLSASVGDRVTITCRASQSITTYLNWYQQKPGKAPKLLIYDASNLETGVPSRFSGSGSGTDFTLTISSLQPEDFATYYCQQSYSTPPTFGQGTKVEIK
B3: mAb 236 IgG (antibody, V domains shown)
VH: QVQLVQSGAEVKKPGASVKVSCKASGGTFTSYGINWVRQAPGQGLEWMGWMNPNSGNTGYAQKFQGRVTMTRDTSTSTVYMELSSLRSEDTAVYYCASRGIQLLPRGMDVWGQGTTVTVSS
VL: not shown
B4: mAb 52 IgG (antibody, V domains shown)
VH: QVQLVQSGAEVKKPGSSVKVSCKASGYTFTSYGISWVRQAPGQGLEWMGGIIPMFGTTNYAQKFQGRVTITADKSTSTAYMELSSLRSEDTAVYYCARDRGDTIDYWGQGTLVTVSS
VL: DIQMTQSPSSLSASVGDRVTITCRASQGISNNLNWYQQKPGKAPKLLIYAASSLESGVPSRFSGSGSGTDFTLTISSLQPEDFATYYCQQGNGFPLTFGPGTKVDIK
B5: 324 Multabody (other)
VH: QVQLVQSGAEVKKPGASVKVSCKASGGTFNNYGISWVRQAPGQGLEWMGWMNPNSGNTGYAQKFQGRVTMTRDTSTSTVYMELSSLRSEDTAVYYCARVGDYGDYIVSPFDLWGRGTLVTVSS
VL: DIQMTQSPSSLSASVGDRVTITCRASQSITTYLNWYQQKPGKAPKLLIYDASNLETGVPSRFSGSGSGTDFTLTISSLQPEDFATYYCQQSYSTPPTFGQGTKVEIK
B6: 52 Multabody (other)
VH: QVQLVQSGAEVKKPGSSVKVSCKASGYTFTSYGISWVRQAPGQGLEWMGGIIPMFGTTNYAQKFQGRVTITADKSTSTAYMELSSLRSEDTAVYYCARDRGDTIDYWGQGTLVTVSS
VL: DIQMTQSPSSLSASVGDRVTITCRASQGISNNLNWYQQKPGKAPKLLIYAASSLESGVPSRFSGSGSGTDFTLTISSLQPEDFATYYCQQGNGFPLTFGPGTKVDIK
B7: Fab 324 (Fab, V domains shown)
VH: QVQLVQSGAEVKKPGASVKVSCKASGGTFNNYGISWVRQAPGQGLEWMGWMNPNSGNTGYAQKFQGRVTMTRDTSTSTVYMELSSLRSEDTAVYYCARVGDYGDYIVSPFDLWGRGTLVTVSS
VL: DIQMTQSPSSLSASVGDRVTITCRASQSITTYLNWYQQKPGKAPKLLIYDASNLETGVPSRFSGSGSGTDFTLTISSLQPEDFATYYCQQSYSTPPTFGQGTKVEIK

Key:
[1] = molecular target: T1, SARS-CoV-2 prefusion S ectodomain (BEI NR52394) (SARS-CoV-2 Wuhan-Hu-1, UniProt P0DTC2, stabilised); assay: cell-based or functional assay
[2] = molecular target: T1, SARS-CoV-2 prefusion S ectodomain (BEI …); assay: BLI
[3] = molecular target: T1, SARS-CoV-2 prefusion S ectodomain (BEI …); assay: cryo-EM structure

Row | Binder | binding result [2] | further results
1 | B1 |  | IC50 of neutralization of SARS-CoV-2 pseudovirus (PsV) [1]: ~30 µg/mL
2 | B2 | binds | 
3 | B3 | binds | 
4 | B4 | binds | 
5 | B5 | binds | 
6 | B6 | binds | 
7 | B7 |  | binding result [3]: binds
